Experimental data: the Human Domainome abundance scans (Beltran et al. 2025)
± gives the uncertainty stated by the source.

B1: Cell division cycle and apoptosis regulator protein 1, residues 625 to 674; numbered along this chain, Q8IX12 (parent)
chain: ISTPTHWSKLDPKTMKVNDLRKELESRALSSKGLKSQLIARLTKQLKVEE

Variants of: B1
Test: abundance fitness (aPCA) (normalised: wild type 0, dead -1); higher = more abundant; growth selection in yeast, the domain comes from the species named
Settings: Homo sapiens

Abundance fitness of substitutions, site by site:
S30: N 0.126 ± 0.055; E -0.071 ± 0.043; L -0.184 ± 0.029; H -0.152 ± 0.064; W -0.283 ± 0.043; V -0.047 ± 0.034; D 0.016 ± 0.059; A -0.05 ± 0.045; G -0.026 ± 0.037; T -0.034 ± 0.033; Y -0.141 ± 0.048; C 0.069 ± 0.048; I -0.185 ± 0.071; M -0.067 ± 0.035; P 0.036 ± 0.048; Q -0.148 ± 0.045; K 0.037 ± 0.047
S31: H 0.031 ± 0.059; T -0.052 ± 0.038; C -0.013 ± 0.046; I 0.047 ± 0.06; K -0.132 ± 0.057; L -0.084 ± 0.032; E -0.106 ± 0.044; W -0.097 ± 0.029; D -0.156 ± 0.05; A 0.005 ± 0.034; Q 0.079 ± 0.032; G 0.014 ± 0.027; Y -0.123 ± 0.071; N -0.095 ± 0.059; P -0.062 ± 0.045; V -0.041 ± 0.041; M -0.066 ± 0.038; F -0.101 ± 0.053
E25: R -0.154 ± 0.043; P -1.02 ± 0.12; A -0.443 ± 0.056; K 0.002 ± 0.043; V -0.155 ± 0.044; M -0.076 ± 0.044; I -0.274 ± 0.066; W -0.304 ± 0.049; F -0.568 ± 0.038; T -0.18 ± 0.047; Q -0.097 ± 0.035; D -0.581 ± 0.081; S -0.539 ± 0.058; Y -0.799 ± 0.15
R27: T -0.948 ± 0.14; S -0.818 ± 0.043; V -0.678 ± 0.055; L -0.805 ± 0.049; Y -0.995 ± 0.21; G -0.743 ± 0.045; P -0.784 ± 0.12; N -0.871 ± 0.1; A -0.713 ± 0.064; Q -0.845 ± 0.098; F -1.02 ± 0.16; I -1.1 ± 0.14; D -0.747 ± 0.06; H -0.765 ± 0.11; C -0.776 ± 0.083; M -0.591 ± 0.082; K -0.822 ± 0.089
K35: D -0.212 ± 0.054; L -0.243 ± 0.043; M -0.244 ± 0.048; F -0.419 ± 0.08; Q -0.299 ± 0.08; V -0.264 ± 0.038; G -0.356 ± 0.031; Y -0.333 ± 0.045; S -0.288 ± 0.044; T -0.276 ± 0.061; E -0.074 ± 0.048; C -0.355 ± 0.058; N -0.212 ± 0.054; W -0.482 ± 0.032; I -0.249 ± 0.055; A -0.341 ± 0.051
K22: W -0.209 ± 0.036; Q -0.136 ± 0.057; M -0.028 ± 0.052; H 0.024 ± 0.039; S -0.004 ± 0.043; A -0.148 ± 0.044; I -0.065 ± 0.047; G -0.233 ± 0.038; D -0.239 ± 0.075; C -0.134 ± 0.05; R -0.023 ± 0.03; F -0.16 ± 0.06; P -0.491 ± 0.035; N -0.097 ± 0.04; E -0.242 ± 0.059
S26: I -0.012 ± 0.068; Q 0.001 ± 0.061; E 0.026 ± 0.039; N 0.025 ± 0.037; L 0.118 ± 0.038; T 0.106 ± 0.047; M 0.073 ± 0.051; D 0.031 ± 0.062; F 0.028 ± 0.06; H 0.053 ± 0.074; Y 0.044 ± 0.065; R 0.118 ± 0.035; G 0.089 ± 0.035; K 0.197 ± 0.059; P -0.61 ± 0.056; A 0.088 ± 0.048; W 0.047 ± 0.029; C 0.08 ± 0.04
R21: Q -0.259 ± 0.087; M 0.036 ± 0.049; C -0.039 ± 0.048; L -0.215 ± 0.039; E -0.541 ± 0.036; K -0.117 ± 0.072; G -0.603 ± 0.04; W -0.53 ± 0.055; Y -0.256 ± 0.044; P -0.682 ± 0.098; S -0.191 ± 0.049; F -0.419 ± 0.042; D -1 ± 0.17; T -0.155 ± 0.037; I -0.006 ± 0.07; H -0.199 ± 0.068; A -0.192 ± 0.045; V -0.106 ± 0.037
D19: E -0.275 ± 0.046; F -0.035 ± 0.043; R -0.073 ± 0.029; H 0.045 ± 0.034; Y -0.023 ± 0.032; T -0.047 ± 0.03; C -0.02 ± 0.037; S 0.038 ± 0.026; Q 0.033 ± 0.03; K -0.33 ± 0.035; N 0.063 ± 0.032; V -0.167 ± 0.031; M 0.031 ± 0.033; I -0.044 ± 0.034; L 0.021 ± 0.029; P -0.334 ± 0.034; G -0.196 ± 0.035; A -0.015 ± 0.03
G33: L -1.04 ± 0.052; F -0.98 ± 0.14; S -0.934 ± 0.063; R -1.04 ± 0.046; M -1.03 ± 0.13; I -1.04 ± 0.25; H -0.932 ± 0.14; N -1.2 ± 0.3; W -1.07 ± 0.073; T -1.03 ± 0.055; K -0.939 ± 0.071; P -1.02 ± 0.077; D -0.62 ± 0.079; A -0.891 ± 0.059; Q -0.819 ± 0.05; C -1 ± 0.073; E -0.857 ± 0.058; Y -1.03 ± 0.17; V -0.919 ± 0.055
S36: R -0.115 ± 0.032; A -0.121 ± 0.043; H -0.195 ± 0.058; L -0.159 ± 0.037; K -0.118 ± 0.062; D -0.085 ± 0.065; W -0.114 ± 0.032; E -0.151 ± 0.047; T -0.049 ± 0.052; F -0.186 ± 0.05; M -0.169 ± 0.05; P -0.005 ± 0.048; Y -0.115 ± 0.043; V -0.105 ± 0.043; N -0.146 ± 0.064
A28: T 0.085 ± 0.037; D 0.129 ± 0.064; M 0.072 ± 0.036; I 0.074 ± 0.064; P -0.782 ± 0.064; H -0.108 ± 0.076; Y 0.181 ± 0.069; W -0.053 ± 0.041; G 0.145 ± 0.033; Q 0.151 ± 0.042; V -0.016 ± 0.033; E 0.038 ± 0.055; L 0.04 ± 0.042; S 0.138 ± 0.031; C 0.054 ± 0.057; R 0.151 ± 0.029; F 0.003 ± 0.052
E23: C -0.677 ± 0.065; P -0.805 ± 0.1; V -0.924 ± 0.081; F -0.737 ± 0.076; D -0.916 ± 0.18; H -0.48 ± 0.067; R -1.07 ± 0.062; S -0.617 ± 0.048; K -1 ± 0.061; N -0.563 ± 0.16; G -0.904 ± 0.061; W -0.661 ± 0.054; Q -0.228 ± 0.06; T -0.672 ± 0.05; L -0.913 ± 0.07; M -0.965 ± 0.13
N18: W -0.015 ± 0.03; R 0.079 ± 0.028; H 0.042 ± 0.029; C 0.051 ± 0.036; I 0.077 ± 0.027; L 0.113 ± 0.028; Y -0.036 ± 0.029; M 0.06 ± 0.031; A 0.072 ± 0.029; Q 0.085 ± 0.029; P 0.072 ± 0.027; D -0.038 ± 0.033; G 0.019 ± 0.032; V 0.05 ± 0.027; S 0.081 ± 0.028; F -0.056 ± 0.038; K 0.124 ± 0.029
K32: D -0.092 ± 0.043; F -0.213 ± 0.047; Y -0.138 ± 0.045; C -0.18 ± 0.036; H -0.05 ± 0.062; S -0.142 ± 0.042; R -0.105 ± 0.034; A -0.153 ± 0.043; N -0.143 ± 0.038; W -0.089 ± 0.049; G -0.131 ± 0.045; E -0.104 ± 0.032; V -0.233 ± 0.032; T -0.066 ± 0.049; L -0.071 ± 0.036
L20: N -1.08 ± 0.22; S -0.859 ± 0.058; T -0.727 ± 0.06; A -0.618 ± 0.035; C -0.416 ± 0.077; G -0.89 ± 0.044; D -0.741 ± 0.083; H -0.752 ± 0.16; Y -0.751 ± 0.11; P -0.899 ± 0.092; F -0.65 ± 0.067; W -0.833 ± 0.09; Q -0.621 ± 0.076; E -0.788 ± 0.052; I 0.136 ± 0.063; M -0.115 ± 0.032; V -0.284 ± 0.039
L29: S -0.368 ± 0.031; N -0.552 ± 0.083; Y -0.384 ± 0.048; K -0.226 ± 0.056; D -0.732 ± 0.1; W -0.746 ± 0.039; F -0.112 ± 0.058; M -0.021 ± 0.052; R -0.213 ± 0.031; A -0.899 ± 0.059; Q -0.172 ± 0.051; H -0.286 ± 0.066; E -0.46 ± 0.046; I 0.045 ± 0.054; G -0.853 ± 0.04; P -0.86 ± 0.098; V -0.476 ± 0.034
Q37: I -0.513 ± 0.056; K -0.108 ± 0.037; F -0.256 ± 0.047; H -0.455 ± 0.11; E 0.058 ± 0.051; A 0.004 ± 0.048; G -0.253 ± 0.038; C -0.04 ± 0.054
L34: C -0.075 ± 0.043; K 0.079 ± 0.038; A -0.111 ± 0.03; P -0.011 ± 0.055; T -0.06 ± 0.045; D -0.062 ± 0.067; I -0.069 ± 0.041; R 0.048 ± 0.034; E -0.113 ± 0.031; N -0.157 ± 0.067; W -0.151 ± 0.034; Y -0.033 ± 0.063; S -0.016 ± 0.037; H -0.026 ± 0.043; F -0.195 ± 0.052; Q -0.015 ± 0.037; M -0.072 ± 0.051
L24: D -0.881 ± 0.13; Y -1.01 ± 0.19; Q -0.891 ± 0.071; T -0.77 ± 0.036; S -0.806 ± 0.051; E -0.665 ± 0.053; I -0.586 ± 0.083; G -0.905 ± 0.064; W -1.11 ± 0.15; A -0.829 ± 0.036; F -0.825 ± 0.068; K -0.879 ± 0.056; P -0.778 ± 0.067; N -0.991 ± 0.13; C -0.393 ± 0.054; R -0.87 ± 0.052; M -0.678 ± 0.062; H -0.742 ± 0.15; V -0.685 ± 0.038
V17: Y -0.054 ± 0.068; R -0.139 ± 0.035; W -0.092 ± 0.051; Q -0.082 ± 0.053; S -0.036 ± 0.037; P -0.182 ± 0.042
